Measured values published in article PMC4022651, “Substitutional Analysis of the C-Terminal Domain of AbrB Revealed Its Essential Role in DNA-Binding Activity”.
Values belong to the substance of their own block, whether it stands above or below them.

Experiments:
AbrB D62A (B. subtilis) = assay: SEC; analytical gel filtration (FPLC) on Superdex 75 5/150 GL; running buffer condition I: 50 mM HEPES pH 7.5, 300 mM NaCl, 2 mM β-mercaptoethanol, no glycerol; 100 µl protein applied; 0.2 ml/min; polymeric forms as % of the areas under the curve of all protein peaks
AbrB E77A (B. subtilis) [1] = assay: as above
AbrB E77A (B. subtilis) [2] = assay: SEC; analytical gel filtration (FPLC) on Superdex 75 5/150 GL; running buffer condition II: 50 mM HEPES pH 7.5, 300 mM NaCl, 2 mM β-mercaptoethanol with 10% glycerol; 60 µl (100 µg) protein applied; 0.2 ml/min; polymeric forms as % of the areas under the curve of all protein peaks
AbrB E80A (B. subtilis) [3] = assay: SEC; analytical gel filtration (FPLC) on Superdex 75 5/150 GL; running buffer condition I: 50 mM HEPES pH 7.5, 300 mM NaCl, 2 mM β-mercaptoethanol, no glycerol; 100 µl protein applied; 0.2 ml/min; polymeric forms as % of the areas under the curve of all protein peaks
AbrB E80A (B. subtilis) [4] = assay: SEC; analytical gel filtration (FPLC) on Superdex 75 5/150 GL; running buffer condition II: 50 mM HEPES pH 7.5, 300 mM NaCl, 2 mM β-mercaptoethanol with 10% glycerol; 60 µl (100 µg) protein applied; 0.2 ml/min; polymeric forms as % of the areas under the curve of all protein peaks
AbrB E85A (B. subtilis) = assay: SEC; analytical gel filtration (FPLC) on Superdex 75 5/150 GL; running buffer condition I: 50 mM HEPES pH 7.5, 300 mM NaCl, 2 mM β-mercaptoethanol, no glycerol; 100 µl protein applied; 0.2 ml/min; polymeric forms as % of the areas under the curve of all protein peaks
AbrB K71A (B. subtilis) [5] = assay: as above
AbrB K71A (B. subtilis) [6] = assay: SEC; analytical gel filtration (FPLC) on Superdex 75 5/150 GL; running buffer condition II: 50 mM HEPES pH 7.5, 300 mM NaCl, 2 mM β-mercaptoethanol with 10% glycerol; 60 µl (100 µg) protein applied; 0.2 ml/min; polymeric forms as % of the areas under the curve of all protein peaks
AbrB K76A (B. subtilis) = assay: SEC; analytical gel filtration (FPLC) on Superdex 75 5/150 GL; running buffer condition I: 50 mM HEPES pH 7.5, 300 mM NaCl, 2 mM β-mercaptoethanol, no glycerol; 100 µl protein applied; 0.2 ml/min; polymeric forms as % of the areas under the curve of all protein peaks
AbrB K94A (B. subtilis) = assay: as above
AbrB K94I (B. subtilis) [7] = assay: as above
AbrB K94I (B. subtilis) [8] = assay: SEC; analytical gel filtration (FPLC) on Superdex 75 5/150 GL; running buffer condition II: 50 mM HEPES pH 7.5, 300 mM NaCl, 2 mM β-mercaptoethanol with 10% glycerol; 60 µl (100 µg) protein applied; 0.2 ml/min; polymeric forms as % of the areas under the curve of all protein peaks
AbrB N88A (B. subtilis) = assay: SEC; analytical gel filtration (FPLC) on Superdex 75 5/150 GL; running buffer condition I: 50 mM HEPES pH 7.5, 300 mM NaCl, 2 mM β-mercaptoethanol, no glycerol; 100 µl protein applied; 0.2 ml/min; polymeric forms as % of the areas under the curve of all protein peaks
AbrB N88D (B. subtilis) = assay: as above
AbrB Q55A (B. subtilis) = assay: as above
AbrB Q55E (B. subtilis) [9] = assay: as above
AbrB Q55E (B. subtilis) [10] = assay: SEC; analytical gel filtration (FPLC) on Superdex 75 5/150 GL; running buffer condition II: 50 mM HEPES pH 7.5, 300 mM NaCl, 2 mM β-mercaptoethanol with 10% glycerol; 60 µl (100 µg) protein applied; 0.2 ml/min; polymeric forms as % of the areas under the curve of all protein peaks
AbrB Q81A (B. subtilis) = assay: SEC; analytical gel filtration (FPLC) on Superdex 75 5/150 GL; running buffer condition I: 50 mM HEPES pH 7.5, 300 mM NaCl, 2 mM β-mercaptoethanol, no glycerol; 100 µl protein applied; 0.2 ml/min; polymeric forms as % of the areas under the curve of all protein peaks
AbrB Q87A (B. subtilis) = assay: as above
AbrB Q89A (B. subtilis) = assay: as above
AbrBQ81E (B. subtilis) [11] = assay: as above
AbrBQ81E (B. subtilis) [12] = assay: SEC; analytical gel filtration (FPLC) on Superdex 75 5/150 GL; running buffer condition II: 50 mM HEPES pH 7.5, 300 mM NaCl, 2 mM β-mercaptoethanol with 10% glycerol; 60 µl (100 µg) protein applied; 0.2 ml/min; polymeric forms as % of the areas under the curve of all protein peaks
[13] = target: AbrBQ81K, identical with the AbrB of B. amyloliquefaciens FZB45 (B. subtilis (with Q81K: B. amyloliquefaciens FZB45)); assay: SEC; analytical gel filtration (FPLC) on Superdex 75 5/150 GL; running buffer condition I: 50 mM HEPES pH 7.5, 300 mM NaCl, 2 mM β-mercaptoethanol, no glycerol; 100 µl protein applied; 0.2 ml/min; polymeric forms as % of the areas under the curve of all protein peaks
AbrBR15A (B. subtilis) [14] = assay: as above
AbrBR15A (B. subtilis) [15] = assay: SEC; analytical gel filtration (FPLC) on Superdex 75 5/150 GL; running buffer condition II: 50 mM HEPES pH 7.5, 300 mM NaCl, 2 mM β-mercaptoethanol with 10% glycerol; 60 µl (100 µg) protein applied; 0.2 ml/min; polymeric forms as % of the areas under the curve of all protein peaks
[16] = target: wild-type AbrB of B. subtilis 168 (His6-AbrB) (B. subtilis); assay: SEC; analytical gel filtration (FPLC) on Superdex 75 5/150 GL; running buffer condition I: 50 mM HEPES pH 7.5, 300 mM NaCl, 2 mM β-mercaptoethanol, no glycerol; 100 µl protein applied; 0.2 ml/min; polymeric forms as % of the areas under the curve of all protein peaks
[17] = target: wild-type AbrB of B. subtilis 168 (His6-AbrB) (B. subtilis); assay: SEC; analytical gel filtration (FPLC) on Superdex 75 5/150 GL; running buffer condition II: 50 mM HEPES pH 7.5, 300 mM NaCl, 2 mM β-mercaptoethanol with 10% glycerol; 60 µl (100 µg) protein applied; 0.2 ml/min; polymeric forms as % of the areas under the curve of all protein peaks

- % of the protein (AUC) in the form with n 4.1 (AbrB D62A (B. subtilis)): 94%
- % of the protein (AUC) in the form with n 8.2 (AbrB D62A (B. subtilis)): 6%
Substance: AbrB D62A (natural protein)

- % of the protein (AUC) in the form with n 4.1 (AbrB E77A (B. subtilis) [1]): 83%
- % of the protein (AUC) in the form with n 8.2 (AbrB E77A (B. subtilis) [1]): 17%
- % of the protein (AUC) in the form with n 4.7 (AbrB E77A (B. subtilis) [2]): 94%
- % of the protein (AUC) in the form with n 55.5 (AbrB E77A (B. subtilis) [2]): 6%
Substance: AbrB E77A (natural protein)

- % of the protein (AUC) in the form with n 3.9 (AbrB E80A (B. subtilis) [3]): 78%
- % of the protein (AUC) in the form with n 8.2 (AbrB E80A (B. subtilis) [3]): 22%
- % of the protein (AUC) in the form with n 4.5 (AbrB E80A (B. subtilis) [4]): 90%
- % of the protein (AUC) in the form with n 56.3 (AbrB E80A (B. subtilis) [4]): 10%
Substance: AbrB E80A (natural protein)

- % of the protein (AUC) in the form with n 4.0 (AbrB E85A (B. subtilis)): 98%
- % of the protein (AUC) in the form with n 8.2 (AbrB E85A (B. subtilis)): 2%
Substance: AbrB E85A (natural protein)

- % of the protein (AUC) in the form with n 4.3 (AbrB K71A (B. subtilis) [5]): 86%
- % of the protein (AUC) in the form with n 8.5 (AbrB K71A (B. subtilis) [5]): 14%
- % of the protein (AUC) in the form with n 3.9 (AbrB K71A (B. subtilis) [6]): > 95%
- stoichiometry N (AbrB K71A (B. subtilis) [6]): 3.9
Substance: AbrB K71A (natural protein)

- % of the protein (AUC) in the form with n 4.0 (AbrB K76A (B. subtilis)): > 95%
- stoichiometry N (AbrB K76A (B. subtilis)): 4
Substance: AbrB K76A (natural protein)

- % of the protein (AUC) in the form with n 4.1 (AbrB K94A (B. subtilis)): 93%
- % of the protein (AUC) in the form with n 8.2 (AbrB K94A (B. subtilis)): 7%
Substance: AbrB K94A (natural protein)

- % of the protein (AUC) in the form with n 4.7 (AbrB K94I (B. subtilis) [7]): 65.6%
- % of the protein (AUC) in the form with n 13.6 (AbrB K94I (B. subtilis) [7]): 34.4%
- % of the protein in larger polymeric forms (AbrB K94I (B. subtilis) [7]): < 30%
- % of the protein (AUC) in the form with n 4.1 (AbrB K94I (B. subtilis) [8]): > 95%
- stoichiometry N (AbrB K94I (B. subtilis) [8]): 4.1
Substance: AbrB K94I (natural protein)

- % of the protein (AUC) in the form with n 4.5 (AbrB N88A (B. subtilis)): 91%
- % of the protein (AUC) in the form with n 8.1 (AbrB N88A (B. subtilis)): 9%
Substance: AbrB N88A (natural protein)

- % of the protein (AUC) in the form with n 4.1 (AbrB N88D (B. subtilis)): 93%
- % of the protein (AUC) in the form with n 8.3 (AbrB N88D (B. subtilis)): 8%
Substance: AbrB N88D (natural protein)

- % of the protein (AUC) in the form with n 3.9 (AbrB Q55A (B. subtilis)): 92%
- % of the protein (AUC) in the form with n 8.1 (AbrB Q55A (B. subtilis)): 8%
Substance: AbrB Q55A (natural protein)

- % of the protein (AUC) in the form with n 4.3 (AbrB Q55E (B. subtilis) [9]): 49%
- % of the protein (AUC) in the form with n 12.3 (AbrB Q55E (B. subtilis) [9]): 51%
- % of the protein (AUC) in the form with n 3.8 (AbrB Q55E (B. subtilis) [10]): > 95%
- stoichiometry N (AbrB Q55E (B. subtilis) [10]): 3.8
Substance: AbrB Q55E (natural protein)

- % of the protein (AUC) in the form with n 4.4 (AbrB Q81A (B. subtilis)): 94%
- % of the protein (AUC) in the form with n 8.5 (AbrB Q81A (B. subtilis)): 6%
Substance: AbrB Q81A (natural protein)

- % of the protein (AUC) in the form with n 4.5 (AbrB Q87A (B. subtilis)): 93%
- % of the protein (AUC) in the form with n 8.1 (AbrB Q87A (B. subtilis)): 7%
Substance: AbrB Q87A (natural protein)

- % of the protein (AUC) in the form with n 4.8 (AbrB Q89A (B. subtilis)): 93%
- % of the protein (AUC) in the form with n 8.1 (AbrB Q89A (B. subtilis)): 7%
Substance: AbrB Q89A (natural protein)

- % of the protein (AUC) in the form with n 3.9 (AbrBQ81E (B. subtilis) [11]): 78%
- % of the protein (AUC) in the form with n 8.1 (AbrBQ81E (B. subtilis) [11]): 22%
- % of the protein (AUC) in the form with n 4.1 (AbrBQ81E (B. subtilis) [12]): > 95%
- stoichiometry N (AbrBQ81E (B. subtilis) [12]): 4.1
Substance: AbrBQ81E (natural protein)

- % of the protein (AUC) in the form with n 4.0 [13]: > 95%
- stoichiometry N [13]: 4
Substance: AbrBQ81K, identical with the AbrB of B. amyloliquefaciens FZB45 (natural protein)

- % of the protein (AUC) in the form with n 4.1 (AbrBR15A (B. subtilis) [14]): 57.5%
- % of the protein (AUC) in the form with n 8.0 (AbrBR15A (B. subtilis) [14]): 42.5%
- % of the protein (AUC) in the form with n 40.4 (AbrBR15A (B. subtilis) [15]): 10%
- % of the protein (AUC) in the forms with 12< n >1 (AbrBR15A (B. subtilis) [15]): 90%
Substance: AbrBR15A (natural protein)

- % of the protein (AUC) in the form with n 4.1 [16]: 87%
- % of the protein (AUC) in the form with n 8.2 [16]: 13%
- % of the protein (AUC) in the form with n 4.8 [17]: > 95%
- stoichiometry N [17]: 4.8
Substance: wild-type AbrB of B. subtilis 168 (His6-AbrB) (natural protein)
